Results: patent CN114907478A (MABWELL SHANGHAI BIOSCIENCE CO LTD, dated 2022)
Positions count from the first letter of the chain named.

T1: hLAG-3-mFc融合蛋白 (human, UniProt P18627 23-450)
T1 construct: range 1-450; no cleavage site is stated; also called hLAG-3-mFc重组蛋白; 人LAG-3-mFc重组蛋白; not shown: mouse Fc
T1 sequence (looked up): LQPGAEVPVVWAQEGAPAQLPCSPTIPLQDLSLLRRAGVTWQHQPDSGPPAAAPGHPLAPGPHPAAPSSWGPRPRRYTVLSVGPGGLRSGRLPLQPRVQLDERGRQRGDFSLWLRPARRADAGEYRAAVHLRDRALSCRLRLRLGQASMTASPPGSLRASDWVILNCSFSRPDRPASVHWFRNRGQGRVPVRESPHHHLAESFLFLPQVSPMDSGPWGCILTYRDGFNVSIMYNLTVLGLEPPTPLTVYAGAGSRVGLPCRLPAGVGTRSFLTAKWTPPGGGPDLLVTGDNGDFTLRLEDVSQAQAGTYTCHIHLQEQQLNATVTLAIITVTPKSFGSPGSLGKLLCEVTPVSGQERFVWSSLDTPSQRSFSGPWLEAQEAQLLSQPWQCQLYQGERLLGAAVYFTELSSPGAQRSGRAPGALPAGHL

B1: ch7F10嵌合抗体 (antibody, human IgG4, V domains shown)
VH: EVKLMESGAELVKPGASVKLSCKVSGVNIKDDYMHWVKQRTEQGLEWIGRIDPEDVETKYDPKFQGKATITSDTSSNTGYLQLSSLTSEDTAVYYCARSFYSNYVNYFDQWGQGTTLTVSS
VL: DIVMTQAPKSMSMSVGERVTLSCKASENVGTYVSWFQQKPEQSPKLLIYGASNRYTGVPDRFTGSGSATDFTLTISSVQAEDLADYHCGQSYSYPYTFGGGTKLEIK
B2: ch3A10嵌合抗体 (antibody, human IgG4, V domains shown)
VH: EVQLQQSGAELVRPGASVKLSCTASGFNIKDDYMHWMKQRPEQGLEWIGWIDPENGETEYASKFQGKATITADTYSNTVYLQFSSLTSEDTGVYYCTIFDYWGQGTSLTVSS
VL: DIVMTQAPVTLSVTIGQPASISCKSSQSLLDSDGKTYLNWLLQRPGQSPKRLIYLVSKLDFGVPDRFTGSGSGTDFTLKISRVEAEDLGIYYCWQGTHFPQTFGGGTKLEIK
B3: ch4C8嵌合抗体 (antibody, human IgG4, V domains shown)
VH: EVQLVESGGGLVKIGGSLKLSCAGSGFTFSNYAMSWVRQTPEKRLEWVATITYGTTYTFYSDNVKGRFTISRDNAKNNLSLQMSHLKSEDTAMYYCTRGEYGSSFAYWGQGTLVTVSA
VL: DIVMTQSQKFMSTSVGDRVSITCKASQNVRTAVAWYQQKPGQSPKALIYLASNRHTGVPDRFTGSGSETDFTLTINNVQSEDLADYFCLQHWNYPLTFGGGTKLEIK
B4: ch7F1嵌合抗体 (antibody, human IgG4, V domains shown)
VH: EVQLVESGPGLVAPSQSLSITCTVSGFSLTDYAVSWIRQPPGKGLEWLGVVWGDGSTNYHSALISRLIITRDNSKRQVFLKLNSLQTDDTATYYCAKGGGGMDYWGQGTSVTVSS
VL: DIVLSQSPAILSASPGEKVTVTCRASSSVSYMHWFQQKPGSSPKPWIYATSNLASGVPVRFSGSGSGTSYSLTISRVEAEDAATYYCQHYNTNPPTWTFGGGSKLEIK
B5: ch7C5嵌合抗体 (antibody, V domains shown)
VH: EVQLQQSGAELARPGASVKLSCKASGYTFTSYGISWVKQRTGQGLEWIGEIYPRSDNTYYNGKFKGKATLTADKSSSTAYMELRSLTSEDSAVFFCARRAFYYYGSNYYAMDYWGQGTSVTVSS
VL: DVLMTQTPLFLPVSLGDQASISCRSSQSIVHSNGDTYLEWYLRKPGQSPKLLIFKVSNRFSGVPDRFSGSGSGTDFTLKISRVEAEDLGVYYCFQGSHVPWTFGGGTKLEIK
B6: ch10B4嵌合抗体 (antibody, human IgG4, V domains shown)
VH: B5 VH with T28S, S31N, V37M, S55G, D56G, K74Q, F94Y, Y104F
VL: B5 VL with L3V, R43Q, F54Y, E110A

The binders below were run against T1, hLAG-3-mFc融合蛋白 (assay: BLI (ForteBio Octet QKe), antibody captured on AHC probe, hLAG-3-mFc 60 nM in solution, 1:1 fit).

Row | Kd [nM] | Binder
1 | 0.117 | B1
2 | 0.128 | B2
3 | 0.427 | B3
4 | 5.52 | B4
5 | 0.365 | B5
6 | 0.0884 | B6

These binders were tested against T1, hLAG-3-mFc融合蛋白 (assay: FACS competition: blocking of hLAG-3-mFc (2 ug/ml) binding to HLA on 293/rhHLA cells).

Row | IC50 [µg/mL] | Binder
7 | 1.21 | B1
8 | 3.33 | B2
9 | 1.28 | B3
10 | 11.5 | B4
11 | 1.87 | B5
12 | 2 | B6
